Results reported in the nanobody polyreactivity screen of Harvey et al. (2022).

Assay: yeast display, Sf9 membrane polyspecificity reagent, FACS + sequencing; frameworks hold sequencing errors
Procedure, shortened: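 Polyreactivity labels are assigned by the sorting gate from which each nanobody was recovered. The gates were low and high (top ~1%), set on anti-HA fluorescence for expression and streptavidin fluorescence for reagent binding. Before sorting, galactose-induced (36–48 hours) yeast display cells were stained for 1 hour at 4 °C with 10% biotinylated, detergent-solubilized Sf9 membrane reagent.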

Sequence	polyreactivity (PSR sort gate)
QVQLVESGGGLVQAGGSLRLSCAASGSIYSYNVMGWYRQAPGKERELVAAITRSGGSTYYADSVKGRFTISRDNAKNTVYLQMNSLKPEDTAVYYCATAYYSTPFREYSYWGQGTQVTVSS	low polyreactivity
QVQLVESGGGLVQAGGSLRLSCAASGSTFVRNAMGWYRQAPWKERELVAAIRWRSGSTYYADSVKGRFTISRDNAKNTVYLQMNSLKPEDPAVYYCAVDYNSFRYGPLGYWGQGTQVTVSS	high polyreactivity
LVQHVESGGGLVKAGGSLRLICAASGRTFLRNAMGWYRQAPGKERELVATITRGGSTYYADSVKGRFTISRDNAKNTVYLEKTSLKPEDTAVYYCSKDFSGGFRRPDYGYWGQGPQVTVSS	low polyreactivity
QVQLVESGGGLVQAGGSLRLSCAASGSIFLSNMGWYRQAPGKERELVAAISRNGGSTYYADSVKGRFTISRDNAKYSVYLQMNSLKPEDTAVYYCAVQRYWGQGTQVTVSS	high polyreactivity
QVQLVESGGGLVQAGGSLRLSCAASGRIFVQYDMGWYRQAPGKERELVAAINDSGDITYYADSVKGRFTISRDNAKNTVYLQMNSLRPEDTAVYYCAASAAYYGFYKSVTYDYWGQGTQVTVSS	low polyreactivity
QVQLVESGGGLVQAGGSLRLSCAASGSIRYYAMGWYRQAPGKERELVAAISSRGTNTYYADSVKGRFTISRDNAKNTVYLQMNSLKPEDTAVYYCNAVVGLGYNYWGQGTQVTVSS	high polyreactivity
QVQLVESGGGVVQAGGSLRLSCAASGSIFTYYAMGWYRQAPGKERELVAAISYGGGSTNYADSVKGRFTISRDNAKYTVYLQMNSLKPEDTAVYYCNRVLGVNYGYWGQGTQVTVSS	high polyreactivity
QVQLVESGGGLVQEGGSLRLSCAASGRIFRRYTMGWYRQAPGKERELVAVITSGGNTHYADSVKGRFTISRDNAKNTVYLQMNSLKPEDTAVYYCAARHYRGSNDYWGQGTQVTVSS	high polyreactivity
QVQLVESGGGLVQAGGSLRLSCAASGIIFVYYGKGWYRQAPGKERELVAAISWSGDDTYYADSVKGRFTISRDNAKNTVYLQMNSLKPEDTAVYYCAARPGYVHIDFDYWGQGSQVTVSS	low polyreactivity
QVQLVESGGGLVQAGCSLRLRCAASGFTFYSYAMGWYRQAPGKERELVANITIGGSTYADSVKGRFTISRDNAKNNVYLQMNSLNPEDTAVYYCARGYRVVGDPLYGEYDYWGQGSQVTVSS	low polyreactivity
QVQLVESGGGLVQAGGSLRLSCAASGSINVRYAMGWYRQAPGKERELVAAISWSGGRTYYADSVKGRFTISRDNAKNTVYLQMNSLKPEDTAVYYCAADSSVRYRDTEDYWGQGTQVTVSS	low polyreactivity
QVQLVESGGGLVQAGGSLRLSCAASGYIFPDYPMGWYRPATGKERELVAAFTSSGGRTYYADSVKGRFTISRDNAKNTVYLQMNSLKPEDTAVYYCAAVSVLKKTFDYWGQGTQVTVSS	high polyreactivity
QVQLVESGGGLVQAGGSLRLSCAASGSIFADYVMGWYRQAPGKERELVAAITRRGRTYYADSVKGRFTISRDNAKNTVYLQMNSLIPEDTAVYYCAKVASGKIDSWGQGTQVTVSS	low polyreactivity
QVQLGESGGGLVQAVGSLRLSCAASGITFVYYAMGWSRQEPGKERELVSSISSADNTNYADSVKGRFTISRDNAKNTVYLQMNSLKPEDTAVYYCAADYWWHLRHYSTGGYWGQGTQVTVSS	low polyreactivity
QVQLVESGGGLVQAGGSLRLSCAASGRIFQPYALGWYRQAPGKEREWVAAITRRAGSTYYADSVQGRFTISRDNAKNTVYLQMNSLKPDDTAVYYCAARGLYWAYEMEYWGQGTQVTVSS	low polyreactivity
QVQLVESGGGLVQAGGSLRLSCAASGYIFNYAIGWYRQAPRKESELVAAITWDGSSTNYADSVKGRFTISRDNAKNTVYLQMKSLKPEDTAVYYCNARGRWTFNGFWFTYNYWGQGTQVTVSS	high polyreactivity
QVQLVESGGGLVQAGGSLRLSCAASGFIFYDYAMGWYRQAPGKERELVASISWSTGSTYYADSVKGRFTISRDNAKNTVYLQMNSLKPEDTADYYCAADGYPLQLYNYWGQGTQVTVSS	low polyreactivity
